Experimental findings from article PMC5431086, “The Rational Design of Therapeutic Peptides for Aminopeptidase N using a Substrate-Based Approach” (Scientific Reports, 2017) are described below.

Broadly, the IC50 is the concentration that gives 50% inhibition. By Ki is commonly meant a dissociation constant, usually derived from enzyme kinetics or from competition with a known ligand.

The target in this assay is recombinant human aminopeptidase N (hAPN) (human) (UniProt P15144). The assay is described as follows: enzyme inhibition assay (competition with the fluorogenic substrate H-Ala-AMC); 0.1 μM APN, 100 μM H-Ala-AMC, 100 mM Tris pH 7.2, Brij 35 0.0002% w/v, 37 °C, triplicate; inhibition competitive, Ki from the IC50 by the Cheng-Prusoff equation.

Turning to nHSPW (peptide), the IC50 stood at 6.5 µM.
In the case of nDQIY (peptide), the half-inhibitory concentration (IC50) was > 500 µM.
In the case of cyc-nHSPW (peptide), the Ki was > 500 µM.
